16 molecules from patent US11634477 (dated 2023) can be followed below.

Bounds are passed on as bounds.

In test [1] the target is SARS-CoV-2 RBD (SARS-CoV-2, UniProt P0DTC2). As to the kind of experiment: ELISA.
For test [2], the target named is SARS-CoV RBD (SARS-CoV, UniProt P59594). As to the kind of experiment: ELISA.

B1: C207 (antibody, V domains shown)
VH: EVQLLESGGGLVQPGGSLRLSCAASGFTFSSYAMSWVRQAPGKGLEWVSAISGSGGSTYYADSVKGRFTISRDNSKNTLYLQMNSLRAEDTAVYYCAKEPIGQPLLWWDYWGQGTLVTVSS
VL: EIVLTQSPATLSLSPGERATLSCRASQSVSSYLAWYQQKPGQAPRLLIYDASNRATGIPARFSGSGSGTDFTLTISSLEPEDFAVYYCQQRSNWPRGFGQGTKVEIK
For the molecule B1, the figures for the EC50 in test [1] and in test [2] were 1.87 ng/mL and greater than 1000 ng/mL, respectively.

B2: C114 (antibody, V domains shown)
VH: QVQLVESGGGLIQPGGSLKLSCVVSGFTVSKNYISWVRQAPGKGLEWVSVIFAGGSTFYADSVKGRFAISRDNSNNTLFLQMNSLRVEDTAIYYCARGDGELFFDQWGQGTLVTVSS
VL: QSVLTQPPSVSGAPGQRVTISCTGTSSNIGAGYDVHWYQQLPGRAPKVLISGNNIRPSEVPDRFSGSRSGTSASLAITSLQPEDEAQYYCQSYDSSLYAVFGGGTKLTVL
In the case of B2, the figures for the EC50 in test [1] and in test [2] were 9.51 ng/mL and greater than 1000 ng/mL, respectively.

B3: C124 (antibody, V domains shown)
VH: EVQLVESGGGLVQPGGSLRLSCAASGFTFSGYSMNWVRQAPGKGPEWVSYISRSSSTIYYADSVKGRFTISRDNAKNSLYLQMNSLRDEDTAVYYCAREGARVGATYDTYYFDYWGQGTLVTVSS
VL: EIVLTQSPATLSLSPGERATLSCRASQSFSSYLAWYQQKPGQAPRLLIYDASNRATGIPARFSGSGSGTDFTLTISSLEPEDFAVYYCQQRNNWPPEWTFGQGTKVEIK
For the molecule B3, the EC50 was 2.23 ng/mL in test [1] and greater than 1000 ng/mL in test [2].

B4: C120 (antibody, V domains shown)
VH: EVQLVESGGGLIQPGGSLRLSCAASGFTVSSNYMTWVRQAPGKGLEWVSLIYPGGSTYYADSVKGRFTISRDNSKNTLYLQMNSLRAEDTAVYYCAREGMGMAAAGTWGQGTLVTVSS
VL: AIRMTQSPSSLSASVGDTVTITCQASQDISKYLNWYQQKPGKAPKLLIYDASNLETGVPSRFSGSGSGTDFTFTISSLQPEDIATYYCQQYDNLPQTFGGGTKVEIK
Regarding B4, the EC50 in test [1] was 1.41 ng/mL; in test [2], greater than 1000 ng/mL.

B5: C204 (antibody, V domains shown)
VH: EVQLLESGGGLEQPGGSLRLSCAASGFTFSTYAMSWVRQAPGKGLEWVSAISGSGAGTFYADSVKGRFTISRDNSKNTLYLQMNSLRAEDTAVYYCARESDCGSTSCYQVGWFDPWGQGTLVTVSS
VL: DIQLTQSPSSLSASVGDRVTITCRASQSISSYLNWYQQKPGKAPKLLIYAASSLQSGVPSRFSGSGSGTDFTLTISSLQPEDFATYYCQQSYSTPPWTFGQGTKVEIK
On to B5, for which the EC50 in test [1] turned out to be 3.73 ng/mL; in test [2] it was 9.41 ng/mL.

B6: C002 (antibody, V domains shown)
VH: EVQLVESGGGVVQPGRSLRLSCAASGFTFSIYGMHWVRQAPGKGLEWVAVISYDGSNKYYADSVKGRFTISRDNSKNTLYLQMNSLRAEDTAVYYCAKEGRPSDIVVVVAFDYWGQGTLVTVSS
VL: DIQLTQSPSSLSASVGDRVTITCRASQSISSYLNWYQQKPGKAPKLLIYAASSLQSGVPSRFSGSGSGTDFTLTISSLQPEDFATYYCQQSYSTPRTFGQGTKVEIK
Regarding B6, the EC50 in test [1] is 3.14 ng/mL; in test [2], greater than 1000 ng/mL.

B7: C139 (antibody, V domains shown)
VH: EVQLVESGGGVVQPGRSLRLSCAASGFTFSSYAMHWVRQAPGKGLEWVAVISYDGSNKYSADSVKGRFTISRDNSKNTLYLQMNSLRAEDTAVYYCAKGGAYSYYYYMDVWGKGTTVTVSS
VL: not shown
In the case of B7, the results for the EC50 in test [1] and in test [2] were 1.89 ng/mL and greater than 1000 ng/mL, respectively.

B8: C118 (antibody, V domains shown)
VH: QVQLVESGGGVVQPGRSLRLSCAASGFTFSNYAMHWVRQAPGKGLEWVAVISYDGSNKYYADSVKGRFTISRDNSKNTLYLQMNSLRAEDTAIYYCASGYTGYDYFVRGDYYGLDVWGQGTTVTVSS
VL: QPVLTQSPSASASLGASVKLTCTLSSGHSSYAIAWHQQQPEKGPRYLMKLNTDGSHSKGDGIPDRFSGSSSGAERYLTISSLQSEDEADYYCQTWGTGILVFGGGTKLTVL
Turning to B8, the EC50 is 3.45 ng/mL in test [1] and 3.82 ng/mL in test [2].

B9: C145 (antibody, V domains shown)
VH: EVQLVESGGGLIQPGGSLRLSCAASGFSVSSNYMSWVRQAPGKGLEWVSVIYSGGSTYYADSVKGRFTISRDNSKNTLYLQMNSLRAEDTAVYYCAREGEVEGYYDFWSGYSRDRYYFDYWGQGTLVTVSS
VL: QSALTQPASVSGSPGQSITISCTGTSSDVGGYNYVSWYQQHPGKAPKLMIYDVSNRPSGVSNRFSGSKSGNTASLTISGLQAEDEADYYCSSYTSSTTRVFGTGTRVTVL
As for B9, the EC50 in test [1] was 3.86 ng/mL; in test [2] it was greater than 1000 ng/mL.

B10: C115 (antibody, V domains shown)
VH: QVQLVESGGGLIKPGRSLRLSCTASGFTFGDYAMTWFRQAPGKGLEWVGFIRSKAYGGTTGYAASVKYRFTISRDDSKSIAYLQMDSLKTEDTAVYYCTRWDGWSQHDYWGQGTLVTVSS
VL: DIVMTQSPLSLSVTPGEPASISCRSSQSLLHSNGNNYFDWYLQKPGQSPQLLIYLGSNRASGVPDRFSGSGSGTDFTLKISRVEAEDVGVYYCMQVLQIPYTFGQGTKLEIK
In the case of B10, the EC50 is 3.4 ng/mL in test [1] and greater than 1000 ng/mL in test [2].

B11: C214 (antibody, V domains shown)
VH: QVQLVESGGGVVQPGRSLRLSCAASGFTFSSYGMHWVRQAPGKGLEWVAAIWYDGSNKHYADSVKGRFTISRDNSKNTLYLQMNSLRAEDTAVYYCARDVGRVTTWFDPWGQGTLVTVSS
VL: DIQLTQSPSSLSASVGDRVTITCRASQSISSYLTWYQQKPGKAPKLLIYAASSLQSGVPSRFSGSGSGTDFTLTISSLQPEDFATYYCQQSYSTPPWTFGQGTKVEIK
In the case of B11, the EC50 in test [1] was 5.75 ng/mL; in test [2] it was greater than 1000 ng/mL.

B12: C133 (antibody, V domains shown)
VH: QVQLVESGGGVVQPGRSLRLSCAASGFTFSSYAMHWVRQAPGKGLEWVAVILYDGSNKYYADSVKGRFTISRDNSKNTLYLQMNSLRAEDTAVYYCARDSDVDTSMVTWFDYWGQGTLVTVSS
VL: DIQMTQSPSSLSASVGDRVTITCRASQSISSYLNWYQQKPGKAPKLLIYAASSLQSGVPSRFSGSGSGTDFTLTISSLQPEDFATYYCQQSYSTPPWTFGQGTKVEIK
Turning to B12, the EC50 in test [1] was 1.98 ng/mL; in test [2], greater than 1000 ng/mL.

B13: C113 (antibody, V domains shown)
VH: QVQLVESGGGVVQPGRSLRLSCAASGFTFSNFGMHWVRQAPGKGLEWVAVIWYDGSNKYYADSVKGRFTISRDNSKNTLYLQMNSLRAEDTAVYYCARGVNPDDILTGVDAFDIWGQGTMVTVSS
VL: DIQMTQSPSTLSASVGDRVTITCRASQSMSSWLAWYQQKPGNAPKLLIYKASSLESGVPSRFSGSGSGTEFTLTISSLQPDDFATYYCQQHNSSPLTFGGGTKVEIK
Regarding B13, the EC50 in test [1] was 6.93 ng/mL; in test [2] it was greater than 1000 ng/mL.

B14: C134 (antibody, V domains shown)
VH: EVQLLESGGGLVQPGGSLRLSCAASGFTFSNYAMSWVRQAPGKGLEWVSAISGSDGSTYYAGSVKGRFTISRDNSKNTLYLQMNSLRAEDTAVYYCAKDPLITGPTYQYFHYWGQGTLVTVSS
VL: SYELTQPPSVSVAPGKTARITCGGNNIGSKSVHWYQQKPGQAPVLVIYYDSDRPSGIPERFSGSNSGNTATLTISRVEAGDEAEYHCQVWDSSSDRPGVVFGGGTKLTVL
For the molecule B14, the EC50 in test [1] was 1.57 ng/mL; in test [2], greater than 1000 ng/mL.

B15: C128 (antibody, V domains shown)
VH: EVQLLESGGGLVQPGGSLRLSCAASGFTFSTYAMSWVRQAPGKGLEWVSTITGSGRDTYYADSVKGRFTISRDNSKNTLFLQLNSLRAEDAAVYSCANHPLASGDDYYHYYMDVWGKGTTVTVSS
VL: EIVLTQSPGTLSLSPGERATLSCRASQSVNSRQLAWYQQKPGQAPRLLIYGASSRATGIPERFSGSGSGTDFTLTISRLESEDFAVYHCQQYGSSRALTFGGGTKVEIK
For B15, the EC50 in test [1] was 1.95 ng/mL; in test [2], greater than 1000 ng/mL.

B16: C029 (antibody, V domains shown)
VH: QVQLQESGPGLVKPSQTLSLTCTVSGGSISSGGYYWSWIRQHPGKGLEWIGYIYYSGSTYYNPSLKSRVTISVDTSKNQFSLKLSSVTAADTAVYYCARTMYYYDSSGSFDYWGQGTLVTVSS
VL: not shown
On to B16, for which the results for the EC50 in test [1] and in test [2] were 4.13 ng/mL and greater than 1000 ng/mL, respectively.
